Measurements reported in patent US20220372200.

Key:
[1] = test system: T1, KLA peptide acrylamide monomer (KLAAm)
T1 sequence: KLAKLAKKLAKLAK

poly(KLAAm10-co-DMA10) = test system: T2, poly(KLAAm10-co-DMA10)
T2 sequence: KLAKLAKKLAKLAK

[2] = test system: T3, poly[(KLAAm10-co-DMA10)-b-(DAAm140-co-DMA60)] (NP4)
T3 sequence: KLAKLAKKLAKLAK

[3] = test system: T4, poly[(KLAAm10-co-DMA10)-b-(DAAm280-co-DMA120)] (NP5)
T4 sequence: KLAKLAKKLAKLAK

[4] = test system: T5, poly[(KLAAm10-co-DMA30)-b-(DAAm140-co-DMA60)] (NP2)
T5 sequence: KLAKLAKKLAKLAK

[5] = test system: T6, poly[(KLAAm10-co-DMA30)-b-(DAAm280-co-DMA120)] (NP3)
T6 sequence: KLAKLAKKLAKLAK

[6] = test system: T7, poly[(KLAAm10-co-DMA30)-b-(DAAm70-co-DMA30)] (NP1)
T7 sequence: KLAKLAKKLAKLAK

[7] = molecular target: T8, poly(PepAm21-co-DMA71) (P4)
T8 chain: GPLGLAGG

Molecule | percent cleavage by HPLC [1] | percent of side-chain peptides cleaved by HPLC (poly(KLAAm10-co-DMA10)) | percent of KLA peptide left uncleaved after 1 h (HPLC) [2] | percent of KLA peptide left uncleaved after 1 h (HPLC) [3] | percent of KLA peptide left uncleaved after 1 h (HPLC) [4] | percent of KLA peptide left uncleaved after 1 h (HPLC) [5] | percent of KLA peptide left uncleaved after 1 h (HPLC) [6] | cleavage of side-chain peptides monitored by HPLC [7]
trypsin | the KLA peptide underwent fast degradation, reaching 100% cleavage within 1 h | more than 90% of the side-chain peptides were cleaved within 1 h | more than 70% of KLA peptide survived during the first hour of cleavage | more than 70% of KLA peptide survived during the first hour of cleavage | more than 70% of KLA peptide survived during the first hour of cleavage | more than 70% of KLA peptide survived during the first hour of cleavage | more than 70% of KLA peptide survived during the first hour of cleavage | 
thermolysin (protein) ITGTSTVGVGRGVLGDQKNINTTYSTYYYLQDNTRGNGIFTYDAKYRTTLPGSLWADADNQFFASYDAPAVDAHYYAGVTYDYYKNVHNRLSYDGNNAAIRSSVHYSQGYNNAFWNGSQMVYGDGDGQTFIPLSGGIDVVAHELTHAVTDYTAGLIYQNESGAINEAISDIFGTLVEFYANKNPDWEIGEDVYTPGISGDSLRSMSDPAKYGDPDHYSKRYTGTQDNGGVHINSGIINKAAYLISQGGTHYGVSVVGIGRDKLGKIFYRALTQYLTPTSNFSQLRAAAVQSATDLYGSTSQEVASVKQAFDAVGVK |  |  |  |  |  |  |  | the polypeptide brushes were rapidly cleaved within 1 hour under the investigated conditions
